Results taken from patent US20080305187A1, “Use of Parathyroid Hormone for Treating Periodontal Disease and for Other Dental Applications” (priority 2005, published 2008).

Experiments:
[1] = test system: patient with adult periodontitis; assay: Treatment of patient with periodontal disease prior to dental implant therapy; format: in vivo, human; settings: person, 20 μg once-daily subcutaneous for 3 months prior to implant surgery
Excerpt: A person presents with a history of adult periodontitis. The patient has experienced significant alveolar bone loss confirmed radiographically, and has a number of tooth sites with pocket probing depth measurements of about 7 mm. The patient has discussed with their dentist possible extraction of severely-affected teeth and their replacement with dental implants, but the prospects for success are diminished in view of the bone loss that has occurred. Standard periodontal care is provided, including scaling and root planning, and those teeth with poor prognosis are extracted. Prior to implant surgery, the patient is administered 20 μg of hPTH(1-34) once-daily by subcutaneous injection for 3 months prior to implant surgery.

[2] = test system: systemic bone loss associated with osteoporosis; settings: R. M. Neer et al., NEJM 2001; cited from earlier work

With `CC[C@H](C)[C@H](NC(=O)[C@H](CCC(=O)O)NC(=O)[C@H](CO)NC(=O)[C@@H](NC(=O)[C@@H](N)CO)C(C)C)C(=O)N[C@@H](CCC(N)=O)C(=O)N[C@@H](CC(C)C)C(=O)N[C@@H](CCSC)C(=O)N[C@@H](Cc1cnc[nH]1)C(=O)N[C@@H](CC(N)=O)C(=O)N[C@@H](CC(C)C)C(=O)NCC(=O)N[C@@H](CCCCN)C(=O)N[C@@H](Cc1cnc[nH]1)C(=O)N[C@@H](CC(C)C)C(=O)N[C@@H](CC(N)=O)C(=O)N[C@@H](CO)C(=O)N[C@@H](CCSC)C(=O)N[C@@H](CCC(=O)O)C(=O)N[C@@H](CCCN=C(N)N)C(=O)N[C@H](C(=O)N[C@@H](CCC(=O)O)C(=O)N[C@@H](Cc1c[nH]c2ccccc12)C(=O)N[C@@H](CC(C)C)C(=O)N[C@@H](CCCN=C(N)N)C(=O)N[C@@H](CCCCN)C(=O)N[C@@H](CCCCN)C(=O)N[C@@H](CC(C)C)C(=O)N[C@@H](CCC(N)=O)C(=O)N[C@@H](CC(=O)O)C(=O)N[C@H](C(=O)N[C@@H](Cc1cnc[nH]1)C(=O)N[C@@H](CC(N)=O)C(=O)N[C@@H](Cc1ccccc1)C(=O)O)C(C)C)C(C)C` [hPTH(1-34), human PTH(1-34)] the “complications post placement of the implants” value [1] was “No complications”.

B1: parathyroid hormone (peptide, UniProt P01270 32-115, looked up)
Parathyroid hormone: SVSEIQLMHNLGKHLNSMERVEWLRKKLQDVHNFVALGAPLAPRDAGSQRPRKKEDNVLVESHEKSLGEADKADVNVLTKAKSQ
modifications: Parathyroid hormone
For B1, the BMD [2] is listed as “increases BMD” and the “risk of vertebral and non-vertebral bone fracture” value [2] is listed as “reduces the risk of vertebral and non-vertebral bone fracture”.
